Reference: publication PMC8422858

Target: His-tagged recombinant human apolipoprotein L3 (rHis-APOL3) (human)
Assay: native MS

stoichiometry N: 2
Substance: His-tagged recombinant human apolipoprotein L3 (rHis-APOL3) (natural protein)
